Laboratory results published in patent US6833135.

System: T1, Ms6 integrase (Int) (Mycobacterium phage Ms6)
T1 sequence: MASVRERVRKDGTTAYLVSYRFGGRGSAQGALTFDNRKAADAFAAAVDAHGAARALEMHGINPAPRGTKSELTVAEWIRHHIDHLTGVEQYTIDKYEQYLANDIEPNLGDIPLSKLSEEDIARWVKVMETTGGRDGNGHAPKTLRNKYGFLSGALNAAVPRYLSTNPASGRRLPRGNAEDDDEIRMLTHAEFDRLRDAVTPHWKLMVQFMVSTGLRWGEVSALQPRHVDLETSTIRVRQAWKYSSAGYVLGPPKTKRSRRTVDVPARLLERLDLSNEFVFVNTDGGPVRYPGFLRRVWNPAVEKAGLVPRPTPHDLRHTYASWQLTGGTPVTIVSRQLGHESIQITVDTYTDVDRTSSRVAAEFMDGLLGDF
Assay: cell_activity
Conditions: for activity (transformants/ug DNA): M. smegmatis

Substance | activity (transformants/ug DNA) (no integration) | further results
Ms6 attP-int fragment, 1382 bp (primers pC/p10) | 0 | 
CAGCAGACACCCACATGTCCGTGTTGTCACTGACAACACGGCTCCAGGTTTTCCCAGGTCGCTACAGGTCTAAAAAGGTCGGAACAGAACCACACGGGTGTTTTTTCGCAGGTAAACGCCCATTTCCCCACGATCGAAGGGGTTCGAATCCCCTTAGCTCCACCCAAAACCGCAGGTCAGCGAATCGCCCAGAATCTGACAGCACCGATGACATCACAACGGATAGAATCCGGGTATGGCATCAGTGCGTGAACGGGTCCGCAAAGAC (double strand) [Ms6 attP region, 273 bp (pAV3, primers p13/p2N)] |  | activity (colonies/ug DNA) (integrase in trans from suicide helper pAV4, about): 40000
Ms6 attP-int fragment, 1521 bp (primers p13/p10) |  | activity (transformants/ug DNA) (smallest functional cassette): 100000
Ms6 attP-int fragment, 1459 bp (primers p1C/p10) | 0 | 
